Variants at the floor of the assay were thinned out.
B1: TPR 5TU (parent)
chain: GGAUCUUCUCGAUCUAACAAAAAAGACAAAUCUGCCACAAAGCUUGAGAGCAUCUUCGGAUGCAGAGGCGGCAGCCUUCGGUGGCGCGAUAGCGCCAACGUUCUCAACUAUGACACGCAAAACGCGUGCUCCGUUGAAUGGAGUUUAUCAUG

Variants of: B1
Assay: polymerase ribozyme fitness, log enrichment relative to wild type (log ratio); higher = more active; in vitro selection for triplet polymerase activity
In short: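 Input and output libraries were sequenced on Illumina after a single in vitro selection round, run in triplicate on PCR-built, transcribed mutant libraries of each subunit of a heterodimeric triplet polymerase ribozyme. Selection annealed libraries to a biotinylated primer, the partner subunit and triplets, incubated them frozen at −7 °C, then gel-excised extended constructs for streptavidin-bead capture and RT-PCR. Genotypes with ≥10 input reads and ≥1 read per output were kept. Fitness is the logarithm, taken in base 2, of genotype enrichment divided by wild-type enrichment, using inverse-variance-weighted replicate averages.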

Point of comparison: A22U G124A, “polymerase ribozyme fitness (log ratio)” value 0.0485. Against it:
- A22U G34A U55A G59C C95A C118G — lower, -3.53
- A23C C85A G88A A120U U146G — lower, ≤ -4.2
- G25C A41C C96G A110G U148C — lower, ≤ -4.2
- A23C C27U A47C C57A A73G A91G U101G U134A — lower, ≤ -4.2
- G25A C96G C99G G152U — lower, ≤ -4.2
- G25C A52G U56A A60C G67A C99U C116U G133C U135A — lower, ≤ -4.2
- A26C C123G G141U — lower, -2.47
- A26C G92U A106G — lower, -0.538
- A23U C27U U33G G42U G86U U101A G152A — lower, ≤ -4.2
- G25U A49U G50C U61A C95U — lower, -3.07
- G25U A37G C85A U148C — lower, ≤ -4.2
- A23G U134A — lower, ≤ -4.2
- G25U C36U C54G — lower, -4.13
- G25C A91U C96U C99A C108A A138G — lower, ≤ -4.2
- A23G C96U — lower, -2.56
- A22U G48C G50U A120U U145C — lower, -2.9
- A24C U56C A64C C96U — lower, ≤ -4.2
- A23U C43U A73U C85A A97C C105G G140U — lower, ≤ -4.2
- A22U U53C G92U — within 0.2 log units, -0.0274
- A24C G48C C118G — lower, ≤ -4.2
- A24U A39G C51U C57A C85U C129G — lower, ≤ -4.2
- A23U G74U A91U — lower, ≤ -4.2
- A23U C76A — lower, -3.84
- A24C G42C G50U A91U C103A U134A — lower, ≤ -4.2
- A23C C54G A64G C125A U148C C149A A150U — lower, ≤ -4.2
- A23C U53A C57U C96G C103G — lower, ≤ -4.2
- G25C C54U C57U C75U G126A — lower, -2.79
- A22U U82C C93G C103G U151G — lower, ≤ -4.2
- A22U G59A U101A — higher, 0.375
- A24C G48A G84U A106U A142U — lower, ≤ -4.2
- A24U A39U U56A G94A — lower, -3.21
- A24U G25C A37U G65C U90A C116G C131A G141C — lower, ≤ -4.2
- A24U A47U C96U C116A G133A C149G — lower, ≤ -4.2
- A24U A52U C95U — lower, -1.25
- A22U G50C C54A C63G A106U A119G — lower, -3.06
- A22U U55A C57A C85G — lower, -1.44
- A24U G50U G143C — lower, -2.91
- G25U G50U C76A C85U G86C G133C — lower, ≤ -4.2
- G25A U44G C85U A106C — lower, ≤ -4.2
- A24U A47C G48C C85G A91G — lower, ≤ -4.2
- A23U A29U G50A C69G A89C G112C A120U A122U — lower, ≤ -4.2
- A23C U55A — lower, -3.85
- A24C U31C U33G C76G C85U C125G — lower, ≤ -4.2
- A26C G50A G67A G70C G83U C87U U90C — lower, ≤ -4.2
- A26C C32U G48C G143A — lower, ≤ -4.2
- A24G A40U C43U A49C G84A G100U G124A C125G U145G — lower, ≤ -4.2
- A23G C27G A40G U61A C131G G143U — lower, ≤ -4.2
- A23C A30C A52C C95U U144A — lower, ≤ -4.2
- A23U C76G C93G — lower, ≤ -4.2
- A23G G34U G141C — lower, ≤ -4.2
- A24C G71A U135C U146C U148A — lower, ≤ -4.2
- G25A A39G G68C C95U — lower, ≤ -4.2
- G25C G83A A107C U134G — lower, ≤ -4.2
- A26C C85G C118A — lower, -3.99
- A24U A30C G48U A60G G94C U109G A113U — lower, ≤ -4.2
- A23C G34U — lower, -3.82
- A23U G48A C87G U104C — lower, ≤ -4.2
- A23C C118U U144A — lower, ≤ -4.2
- A23U G58C G68A C79G A150G — lower, ≤ -4.2
- G25C A28C C32A A110G G126C — lower, ≤ -4.2
- A23C G58A C96U A106G — lower, ≤ -4.2
- A23U C93G — lower, ≤ -4.2
- A24U G84C C114U G140U — lower, ≤ -4.2
- A22U U44A U45A A122G G140C G143U U146C — lower, ≤ -4.2
- A24G G83C — lower, -3.62
- A24C C69A C105A C114U A122U — lower, ≤ -4.2
- A24G G92C — lower, -2.81
- G25U A29U C38U G70C — lower, ≤ -4.2
- G25C U33G G59A U78A G92C C99A G100U U134A — lower, ≤ -4.2
- A23U G34A U53G G74A U139A — lower, ≤ -4.2
- A24G C79A C96A G141A — lower, ≤ -4.2
- A24U C87G C96U — lower, ≤ -4.2
- A23G A49C G65C G80U G86U C99A — lower, ≤ -4.2
- A23G C32G A52U C85A U102G U127G — lower, ≤ -4.2
- A23U A40U C51U U78G — lower, ≤ -4.2
- A26C U55G G59C — lower, -2.72
- A26C A60U U104C — lower, -3.72
- A23U U44G C76A C79U U82A G86A G143A — lower, ≤ -4.2
- A23U C51U C76A C96G C103G A115G — lower, ≤ -4.2
- A23C G25C C32U A52C C85A — lower, ≤ -4.2
- G25C G48U U55A C85U A147C — lower, -3.98
- A24G C123U G140C — lower, ≤ -4.2
- A24U C57A G83U A97U U146A — lower, -1.51
- A24C G46A C57G C75G A89G C96G — lower, ≤ -4.2
- A24U C38A — higher, 0.851
- A23U G42A C51U G71A G94A U101G — lower, ≤ -4.2
- G25U A28U G50A G83C C87G A89U A91G — lower, ≤ -4.2
- A23G G94U U148C — lower, ≤ -4.2
- G25U G68U G83U U104G A115C — lower, ≤ -4.2
- G25U G86A — lower, -3.14
- A23U C118U — lower, -3.62
- A24C C51U C54G G74U C85G A97U — lower, -4.18
- A22U G81A C125A — within 0.2 log units, -0.142
- A24U C35A U45G A47C G48C A64C C93G — lower, ≤ -4.2
- G25C A64U C125G — lower, ≤ -4.2
- A24C G58A G112U A122G — lower, ≤ -4.2
- A24G C87U — lower, -2.3
- A23U A28G C32G C85U G128U C129A U146G — lower, -4.14
- A24C A39G — lower, -3.42
- A26C C27G A52C G80U A89G — lower, ≤ -4.2
- A24C G59U A73G A150U — lower, -3.13
- A24U C96G G143U A147U — lower, -3.7
- A23U G80A A150G — lower, ≤ -4.2
- A23U C35A A60G G84C G86A C96A G140U — lower, ≤ -4.2
- A23C U53C G58U G94C A115U C129U — lower, ≤ -4.2
- A23U A28G C87U U145A — lower, ≤ -4.2
- A24C A41U C54A — lower, ≤ -4.2
- A24C C38A U77A G84C A89U — lower, ≤ -4.2
- A24U C114G — lower, -3.34
- A22U G84A — lower, -0.556
- A23U A24U A73G G88A A91C C114U — lower, ≤ -4.2
- A22U G68U G74A U78A G92A C125A G140U U145G — lower, ≤ -4.2
- A26C G94C — lower, -1.54
- A26C G94A — lower, -1.36
- A23C C131G U134G — lower, ≤ -4.2
- A24G C27U G42C U55G — lower, ≤ -4.2
- A22U U53A G92A G141A — lower, -3.56
- A24G G71C G83C C87U C96U C149A — lower, ≤ -4.2
- A24G A49C G92U A122C — lower, ≤ -4.2
- A23U A39G A91C — lower, ≤ -4.2
- G25U G58U C69A G71C G94U G100C — lower, ≤ -4.2
- G25U U31A A64C U90A G124A — lower, ≤ -4.2
- A26C A41U — lower, -3.05
- G25A A41U C43U C54U U55A G70A G92A G133U U139G — lower, ≤ -4.2
- A24G A52C A110U — lower, ≤ -4.2
- A23U A73U G88C — lower, ≤ -4.2
- A23G A24U G58A A60G C85G U101A G128A U130C U144G — lower, ≤ -4.2
- A23U A52C — lower, ≤ -4.2
- A23G U90G C93A A107U — lower, ≤ -4.2
- A23C C35A C87A — lower, -4.05
- A24U A40G C57A C96A C99U U134A — lower, ≤ -4.2
- A24U A52C U56A A73G C93U — lower, -3.52
- A24U A28C C76A U82A C99U C118U G141C — lower, ≤ -4.2
- A23G U127G — lower, ≤ -4.2
- A23C A24U U61C G83A G112U U127G — lower, ≤ -4.2
- G25A U44G U77A G83U U104A — lower, ≤ -4.2
- A24G G83C U101G C123A G141U — lower, ≤ -4.2
- A24U G141A — higher, 0.58
- A26C A30G U45A A60G A97U U104G G143U — lower, ≤ -4.2
- A24G U55A C57U A73U U82G G92A A97U G141C — lower, ≤ -4.2
- G25U G59U C93G C96U U134C — lower, ≤ -4.2
- A23G G46A C87U C132G — lower, ≤ -4.2
- G25U A41U — lower, -3
- G25U A41G — lower, -0.833
- A22U U55G — lower, -0.206
- A26C U33A G92C C105G — lower, ≤ -4.2
- A23U U139A — lower, ≤ -4.2
- A24C G141C — lower, -3.54
- G25A C85A C95U — lower, -2.49
- A23G C54G G80C C105U C108U A113C C132G — lower, ≤ -4.2
- A24U A47U G50A G59U A60G C87U C103G U109A A110G — lower, -4.01
- A24C C54G G74A U82A A89U U146A — lower, ≤ -4.2
- A23G G58U C87A A115U — lower, ≤ -4.2
- A23C A110G U111A — lower, ≤ -4.2
- A24C C87U — lower, -3.57
- G25U C87U — lower, -2.63
- A24C G34C C35A A122G U134A G143C — lower, -4.11
- A26C C87A — lower, ≤ -4.2
- A24U C96A — higher, 0.632
- A24G A28U U55A G140A — lower, ≤ -4.2
- A24U C85A — lower, -1.22
- A24U C85G — lower, -2.77
- A24U A40C A47U C69U C93U C118U U145A — lower, -4.16
- A24C U44A G50U U55A — lower, ≤ -4.2
- A23G C54A — lower, -3.28
- A23G A37G C95A C118G G140A — lower, ≤ -4.2

— the RNAGym collection of RNA variant scans (doi:10.1073/pnas.2313332121)
